Assay results as given in paper PMC10046460, “Phase I Trial of [^99mTc]Tc-maSSS-PEG2-RM26, a Bombesin Analogue Antagonistic to Gastrin-Releasing Peptide Receptors (GRPRs), for SPECT Imaging of GRPR Expression in Malignant Tumors” (Cancers, 2023).
Square brackets hold non-standard residues; d marks the D form. Peptide text beside a SMILES is read from it. * marks the point of attachment. Sta = CC(C)C[C@H](N)[C@@H](O)CC(=O)O; Mercaptoacetyl = O=C(CS)*; AEEA = NCCOCCOCC(=O)O

How the values were obtained:
[1] = molecular target: T1, gastrin-releasing peptide receptor (GRPR) (Homo sapiens, UniProt P30550); experiment: SPECT/CT imaging of tumor uptake in PCa patients; type: in vivo; details: for SUVmax: prostate tumor, 40 µg iv; for SUVmax / Ratio SUVmax in Tumor to Background: 2 h post administration
T1 construct: from tissue; host or cells: primary prostate cancer, primary breast cancer and axillary lymph-node metastases in living patients
Procedure: (§1) A single-center diagnostic phase I open-label exploratory study (ClinicalTrials.gov ID NCT04746638) was conducted at the Cancer Research Institute, Tomsk National Research Medical Center of the Russian Academy of Sciences, and the initial protocol was approved by the Institute’s Scientific Council and Board of Medical Ethics (protocol 14, approved 21 December 2020). Patients (18–70 y) with clinically and radiologically diagnosed (with histological verification) PCa or BCa were included in this study after providing written informed consent. Criteria for inclusion were: the ability to undergo planned diagnostic investigations; patient’s hematological, liver, and renal function test results within the normal limits; and a negative pregnancy test for BCa patients. The exclusion criteria included contraindications to surgical intervention due to severe concomitant pathology; a second malignancy (non-breast or non-prostate); activity/history of autoimmune disease, hepatitis B or C, HIV, or infectious diseases within the preceding 3 months; participation in other clinical studies; and ongoing toxicity over grade 2 from previous standards or investigational therapies. Additionally, for PCa patients, exclusion criteria were androgen deprivation therapy over 3 months, and for BCa patients, exclusion criteria were HER2-positive or non-luminal cancer, in situ T0 and T3-4 tumors, the presence of distant metastases, and history of chemo- and/or hormone-therapy. Six male PCa and seven female BCa patients were included in the study (Figure 1 and Figure 2).
(§2) Patients were injected with [^99mTc]Tc-maSSS-PEG2-RM26 (40 µg of maSSS-PEG2-RM26 labeled with 640 ± 165 MBq for PCa and 695 ± 120 MBq for BCa patients per injection) as a single intravenous bolus. Imaging was performed using a hybrid system (Symbia Intevo T16), equipped with a dual-head gamma camera and an integrated 16-slice CT scanner. For imaging, a low-energy high-resolution collimator was used. Patients underwent whole-body planar images (anterior and posterior, with a of scan speed 12 cm/min in a 1024 × 256 pixel matrix) and SPECT-CT acquisition (32 projections, 30 s each, in a 128 × 128 pixel matrix) and a low-dose CT (140 kVp, 20 mAs/slice in a 512 × 512 pixel matrix) were performed 2, 4, 6, and 24 h after injection. The images were transferred to a Syngo.via (Siemens) workstation for analysis.

[2] = set-up: species or system human; details: in vivo
Procedure: (§3) The geometric means of counts in the regions of interest (ROIs) drawn over organs and the whole body for anterior and posterior projections were calculated for every time point. An ROI for the heart was used to estimate activity concentrations in the blood. Quantification was performed as described previously. Absorbed doses for individual organs, effective doses, and effective dose equivalents were calculated in OLINDA/EXM 1.1 (adult male phantom for PCa and adult female phantom for BCa) using average residence times derived from activity distributions over time fitted to a single exponential using Prism 9.2.0 (GraphPad Software, LLC, Boston, MA, USA).

[3] = molecular target: T1, gastrin-releasing peptide receptor (GRPR); experiment: SPECT/CT imaging of tumor and LN metastasis uptake in BCa patients; type: in vivo; details: for SUVmax, tumor (T) / SUVmax, single LN metastasis (LNM): 2 h post administration, 40 µg iv; for median activity accumulation (SUVmax): 2 h after injection, Me [Q1–Q3]
Procedure: as §1, §2

clinical = details: human, in vivo; for tissue uptake dose at 2 h / tissue uptake dose at 4 h / tissue uptake dose at 6 h / tissue uptake dose at 24 h: iv, 40 ug, total radioactivity, Distribution, SD
Procedure: as §2, §3

T1 sequence (P30550 whole entry): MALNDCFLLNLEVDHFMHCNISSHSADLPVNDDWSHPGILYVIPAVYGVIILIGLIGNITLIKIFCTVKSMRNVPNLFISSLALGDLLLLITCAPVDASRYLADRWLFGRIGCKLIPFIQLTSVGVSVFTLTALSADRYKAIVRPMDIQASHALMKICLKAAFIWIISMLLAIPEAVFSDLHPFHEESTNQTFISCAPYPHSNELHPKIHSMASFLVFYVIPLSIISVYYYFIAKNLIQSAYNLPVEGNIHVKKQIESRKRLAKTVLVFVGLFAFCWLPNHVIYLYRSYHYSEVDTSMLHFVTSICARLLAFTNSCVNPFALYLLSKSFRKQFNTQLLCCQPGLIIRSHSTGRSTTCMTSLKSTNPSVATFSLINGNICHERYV

## CC(C)C[C@H](NC(=O)C[C@H](O)[C@H](CC(C)C)NC(=O)[C@H](Cc1c[nH]cn1)NC(=O)CNC(=O)[C@@H](NC(=O)[C@H](C)NC(=O)[C@H](Cc1c[nH]c2ccccc12)NC(=O)[C@H](CCC(N)=O)NC(=O)[C@@H](Cc1ccccc1)NC(=O)COCCOCCNC(=O)[C@H](CO)NC(=O)[C@H](CO)NC(=O)[C@H](CO)NC(=O)CS)C(C)C)C(N)=O [[^99mTc]Tc-maSSS-PEG2-RM26, metal not drawn] (Mercaptoacetyl-SSS[AEEA][dF]QWAVGH[Sta]L-NH2)
[1]; PCa patient P2, SPECT/CT
  SUVmax: 0.78 (1.7 × 2)
[1]; PCa patient P3, SPECT/CT
  SUVmax: 1.21 (4.1 × 2.8)
[1]; PCa patient P4, SPECT/CT
  SUVmax: 1.14 (1.8 × 2.0)
[1]; PCa patient P5
  Ratio SUVmax in Tumor to Background: No accumulation
[1]; PCa patient P5, SPECT/CT
  SUVmax: No accumulation
[1]; PCa patient P6
  Ratio SUVmax in Tumor to Background: No accumulation
[1]; PCa patient P6, SPECT/CT
  SUVmax: No accumulation
[1]; PCa patients, SPECT/CT
  patients with uptake in tumors identified: four out of six
[1]; prostate tumors, 2 h after injection, Me [Q1–Q3]
  median activity accumulation (SUVmax): 1.18 [0.78–1.67]
[2]
  radionuclide-associated dose burden per patient: 3-6 mSv/study
[2]; iv
  Absorbed dose, Ovaries: 0.018 ± 0.008
  Absorbed dose, Testes: 0.004 ± 0.005
  Absorbed dose, Uterus: 0.020 ± 0.008
[3]; BCa patient B1, SPECT/CT
  SUVmax, tumor (T): T: 1.41 (2.8 × 2.2)
[3]; BCa patient B2, SPECT/CT
  SUVmax, single LN metastasis (LNM): 1.8
  SUVmax, tumor (T): 1.75
[3]; BCa patient B3, SPECT/CT
  SUVmax, single LN metastasis (LNM): 1.8
  SUVmax, tumor (T): 0.87
[3]; BCa patient B4, SPECT/CT
  SUVmax, single LN metastasis (LNM): 0.58
  SUVmax, tumor (T): 0.57
[3]; BCa patient B5, SPECT/CT
  SUVmax, single LN metastasis (LNM): 1.8
  SUVmax, tumor (T): 0.87
[3]; BCa patient B6, SPECT/CT
  SUVmax, tumor (T): T: 0.43 (1.5 × 1.5)
[3]; BCa patient B7, SPECT/CT
  SUVmax, tumor (T): T: 0.50 (1.5 × 1.4)
[3]; BCa patients, SPECT/CT
  patients with high uptake in axillary LN: four BCa patients
  patients with increased accumulation in the tumor: seven out of seven
[3]; LN metastases in BCa patients
  median activity accumulation (SUVmax): 1.8 [0.58–1.8]
[3]; breast tumors
  median activity accumulation (SUVmax): 0.87 [0.43–1.75]
clinical; female, Gall bladder
  tissue uptake dose at 2 h: 5 ± 5 %ID
  tissue uptake dose at 4 h: 5 ± 4 %ID
  tissue uptake dose at 6 h: 4 ± 3 %ID
  tissue uptake dose at 24 h: 0.3 ± 0.1 %ID
clinical; female, Jejunum
  tissue uptake dose at 2 h: 21 ± 9 %ID
  tissue uptake dose at 4 h: 25 ± 17 %ID
  tissue uptake dose at 6 h: 13 ± 10 %ID
  tissue uptake dose at 24 h: 3 ± 2 %ID
clinical; female, Kidney
  tissue uptake dose at 2 h: 5 ± 3 %ID
  tissue uptake dose at 4 h: 3 ± 3 %ID
  tissue uptake dose at 6 h: 3 ± 3 %ID
  tissue uptake dose at 24 h: 5 ± 5 %ID
clinical; female, Liver
  tissue uptake dose at 2 h: 6 ± 2 %ID
  tissue uptake dose at 4 h: 3 ± 1 %ID
  tissue uptake dose at 6 h: 3 ± 2 %ID
  tissue uptake dose at 24 h: 2 ± 2 %ID
clinical; female, Lower colon
  tissue uptake dose at 2 h: 1.4 ± 0.8 %ID
  tissue uptake dose at 4 h: 1 ± 0.9 %ID
  tissue uptake dose at 6 h: 0.8 ± 0.7 %ID
  tissue uptake dose at 24 h: 20 ± 15 %ID
clinical; female, Upper colon
  tissue uptake dose at 2 h: 1.1 ± 0.6 %ID
  tissue uptake dose at 4 h: 6 ± 12 %ID
  tissue uptake dose at 6 h: 19 ± 17 %ID
  tissue uptake dose at 24 h: 15 ± 10 %ID
clinical; female, Urinary bladder
  tissue uptake dose at 2 h: 4 ± 7 %ID
  tissue uptake dose at 4 h: 1 ± 2 %ID
  tissue uptake dose at 6 h: 0.3 ± 0.3 %ID
  tissue uptake dose at 24 h: 0.2 ± 0.2 %ID
clinical
  activity in liver and kidneys: over 3 % of injected activity
  injected activity excreted via bile: Up to 40%
  route of excretion: predominantly hepatobiliary excretion
clinical; male, Gall bladder
  tissue uptake dose at 2 h: 2 ± 2 %ID
  tissue uptake dose at 4 h: 2 ± 2 %ID
  tissue uptake dose at 6 h: 2 ± 2 %ID
  tissue uptake dose at 24 h: 2.2 ± 0.3 %ID
clinical; male, Jejunum
  tissue uptake dose at 2 h: 12 ± 12 %ID
  tissue uptake dose at 4 h: 9 ± 9 %ID
  tissue uptake dose at 6 h: 9 ± 19 %ID
  tissue uptake dose at 24 h: 10 ± 1 %ID
clinical; male, Kidney
  tissue uptake dose at 2 h: 2.9 ± 0.9 %ID
  tissue uptake dose at 4 h: 3 ± 3 %ID
  tissue uptake dose at 6 h: 3 ± 1 %ID
  tissue uptake dose at 24 h: 2.4 ± 0.9 %ID
clinical; male, Liver
  tissue uptake dose at 2 h: 4 ± 2 %ID
  tissue uptake dose at 4 h: 2.2 ± 0.8 %ID
  tissue uptake dose at 6 h: 1.8 ± 0.6 %ID
  tissue uptake dose at 24 h: 2 ± 1 %ID
clinical; male, Lower colon
  tissue uptake dose at 2 h: 0.6 ± 0.5 %ID
  tissue uptake dose at 4 h: 0.2 ± 0.2 %ID
  tissue uptake dose at 6 h: 0.5 ± 0.4 %ID
  tissue uptake dose at 24 h: 0.4 ± 0.2 %ID
clinical; male, Upper colon
  tissue uptake dose at 2 h: 1.1 ± 1 %ID
  tissue uptake dose at 4 h: 8 ± 3 %ID
  tissue uptake dose at 6 h: 20 ± 13 %ID
  tissue uptake dose at 24 h: 7 ± 8 %ID
clinical; male, Urinary bladder
  tissue uptake dose at 2 h: 4 ± 6 %ID
  tissue uptake dose at 4 h: 2 ± 1 %ID
  tissue uptake dose at 6 h: 0.6 ± 0.4 %ID
  tissue uptake dose at 24 h: 0.16 ± 0.07 %ID
